Patent publication US20250354164A1

Target: Cas9 protein fused to 10 tandem copies of GCN4 peptide separated by linkers (SunTag) (Streptococcus pyogenes) (UniProt Q99ZW2)
Assay: cell-based or functional assay

Chain of UniProt Q99ZW2 (Q99ZW2 whole entry, the tested form may be a part): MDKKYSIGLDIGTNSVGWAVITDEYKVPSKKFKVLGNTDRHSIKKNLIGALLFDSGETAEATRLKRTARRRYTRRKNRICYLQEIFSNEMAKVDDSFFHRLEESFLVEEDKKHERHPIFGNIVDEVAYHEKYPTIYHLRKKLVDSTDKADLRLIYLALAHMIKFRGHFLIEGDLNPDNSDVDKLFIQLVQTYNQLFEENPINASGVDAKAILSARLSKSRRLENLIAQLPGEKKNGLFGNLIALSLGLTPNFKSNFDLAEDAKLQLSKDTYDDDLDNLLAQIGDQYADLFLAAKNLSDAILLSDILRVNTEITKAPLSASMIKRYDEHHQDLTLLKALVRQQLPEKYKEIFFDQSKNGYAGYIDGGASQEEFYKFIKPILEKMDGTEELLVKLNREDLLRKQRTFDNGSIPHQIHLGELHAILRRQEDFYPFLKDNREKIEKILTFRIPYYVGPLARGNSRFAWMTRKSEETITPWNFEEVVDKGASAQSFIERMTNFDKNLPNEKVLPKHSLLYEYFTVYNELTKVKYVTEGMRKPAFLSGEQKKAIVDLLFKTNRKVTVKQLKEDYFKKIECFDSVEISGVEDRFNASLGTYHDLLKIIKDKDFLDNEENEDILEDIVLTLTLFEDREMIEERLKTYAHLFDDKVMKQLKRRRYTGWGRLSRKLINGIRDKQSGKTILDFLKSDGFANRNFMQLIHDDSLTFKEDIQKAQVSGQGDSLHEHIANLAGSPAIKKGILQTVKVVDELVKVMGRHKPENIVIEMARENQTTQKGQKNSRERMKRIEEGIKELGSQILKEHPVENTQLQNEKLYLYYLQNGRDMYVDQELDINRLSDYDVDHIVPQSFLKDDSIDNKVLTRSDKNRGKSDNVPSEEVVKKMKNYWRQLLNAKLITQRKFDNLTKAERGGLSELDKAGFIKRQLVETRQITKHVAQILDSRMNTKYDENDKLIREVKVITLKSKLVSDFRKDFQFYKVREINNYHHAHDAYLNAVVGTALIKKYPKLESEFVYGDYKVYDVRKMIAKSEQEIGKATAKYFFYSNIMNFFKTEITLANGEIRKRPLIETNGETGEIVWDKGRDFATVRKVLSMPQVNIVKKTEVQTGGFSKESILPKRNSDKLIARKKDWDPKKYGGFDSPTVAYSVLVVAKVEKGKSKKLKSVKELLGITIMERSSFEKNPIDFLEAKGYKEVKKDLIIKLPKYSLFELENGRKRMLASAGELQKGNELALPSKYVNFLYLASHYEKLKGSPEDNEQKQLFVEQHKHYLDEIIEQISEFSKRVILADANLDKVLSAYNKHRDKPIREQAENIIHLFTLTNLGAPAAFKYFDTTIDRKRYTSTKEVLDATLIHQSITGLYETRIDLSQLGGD

In the case of “REDIT recombinator protein (SSAP RecT) fused to scFV antibody peptide (SunTag recruitment)”, the HRD efficiencies (mKate knock-in assay) is reported as 2 fold.
